Measurements published in the RNAGym collection of RNA variant scans (doi:10.7554/elife.80360).

B1: HDV Ribozyme (parent)
chain: GGCCGGCAUGGUCCCAGCCUCCUCGCUGGCGCCGGCUGGGCAACAUUCCGAGGGGACCGUCCCCUCGGUAAUGGCGAAUGGGACCCA

Variants of: B1
Experiment: self-cleavage, relative activity (ratio to wild type); higher = more cleavage; co-transcriptional

Variant	self-cleavage
U72A G80A	0.169
C24A A43U	0.258
A71C C86A	0.831
U37C C58A	1.22
U12G G34U	0.266
C13A C36A	0.0421
C63G G76A	0.974
G38A A42C	0.148
U60C A77U	0.831
C44U G54A	0.872
C48U G55C	0.938
G11C A77U	0.0462
C36A C58G	0.119
G68U C84G	0.525
C32U G73U	0.267
G25U G74U	0.0268
G2U U23C	0.112
G54C G74U	0.475
G54C C75A	0.138
C3U U9G	0.942
A70C U79G	0.554
C32U G55C	0.866
U12C G55A	0.237
C22A G25A	0.0369

Variant	self-cleavage
C18U A78C	0.185
C49G U65A	0.573
C22U C36U	0.254
C7U C41A	0.571
C7G C64U	0.396
C19G G39U	0.0707
U9A A56U	0.867
A16G U20A	0.138
G2A C57G	0.158
G1A C84G	0.0978
C21U A83G	0.124
G54C C85A	0.831
U79C A87U	0.373
C22G	0.0832
C18A C58G	0
C44G A70C	0.831
C24A A45G	0.898
G52U G73U	0.305
C18A C22U	0.0378
G34C A42G	0.0554
C18A A51U	0.0378
C18U G52A	0.737
A45G A83U	0.485
G11C C13U	0.0852

Variant	self-cleavage
C7U G73A	0.424
C32A C63G	0.095
U37G C44A	0.0791
G34C C64G	0.306
U20C C84U	0.111
U37G A43U	0.208
A16C C64U	1.02
G5C G68A	0.208
G2A A83G	0.122
U37A G68C	0.0405
U27C G38U	0.131
U27A G40U	0.793
U12C C21U	0
G34C U65C	0.573
U12C A83U	0.128
C19A C86A	0.273
C32A G53C	0.0923
A42U G73C	0.267
G2U G55C	0.116
G6A G38U	0.0923
G10A C14U	0.59
G6C C15A	0
C49U C61G	0.731
G81A C85G	0.175

Variant	self-cleavage
C62G G74U	0.372
G11C G76C	0.628
C14A G82A	0.415
C14G C84U	0.415
G34C C41U	0.0378
C33G A42U	0.0678
A8C G55C	1.03
A56C C84A	0.95
C3G U65G	0.751
A8G U9A	0.506
U20G A42G	0.138
G10U C48G	0.767
G39A G52C	0.394
G54A C61U	1.04
G31U A77U	0.0665
C33U C58U	0.917
U23G C49U	0.867
C15U U23G	0.415
A16C C66U	0.982
C36U G38U	0.147
G17C A87G	0.244
C15U C86A	1.1
A45C G53U	0.712
G1A U69G	0.369

Variant	self-cleavage
U46A C85A	0.7
C41A A71U	0.665
G1U G53A	0.32
C24A G73A	0.234
G52A G73C	0.337
G6U C57U	0.573
U20C U27C	0
G55C G67U	0.967
G38U C41A	0.407
G54C A77U	0.695
C21G G34A	0.0386
U27C G80C	0.101
G81U C85A	0.389
U46C A51U	0.846
G59C U79C	0.431
A8C G52U	0.566
G50C A70U	0.8
C30G A87U	0.14
C36U G53U	0.852
C4G G76C	0.494
A16C G74A	0.0692
A16U C41U	0.997
C4U G80C	0.157
C41U G59A	1

Variant	self-cleavage
G35C A70C	0.158
C22A C86A	0.448
U12G U72A	0.525
C22A G34A	0.0573
C33A G50U	0.295
C24G A45C	0.0302
U60G C63U	0.982
C66G G67C	1.01
G59U C64G	1.13
C30U A70C	0.525
C18A G80A	0.0963
U23C C64A	0.743
C3A C86A	0.535
C49G G81C	0.196
G25A U46C	0.0831
C49G G80U	0.123
C36U G81A	0.24
C24G U47G	0.0978
A16C C24A	0.277
C44A C57G	0.684
C33G U37C	0.122
C3G C64G	0.546
C7A A16G	0.249
U12C U23C	0.755

Variant	self-cleavage
C22G A70U	0.173
A71C G74C	0.128
U69C A83U	0.431
A78U G80U	0.244
A45C C75U	0.201
G11U U79G	0.231
C36U U60G	0.508
U72A A87U	0.729
C49U U69C	0.831
G35A U47C	0.489
A42C G82A	0.107
C26G G50U	1.05
C26A G68A	1.08
G35A A45G	0.443
C13A G68A	0.187
G10U C15G	0.0773
G2U A87C	0.0661
G5U G40C	0.115
U9G A45G	0.684
C15A U65C	0.519
C13A U72A	0
G35U G38A	0.0702
G55A C84A	0.992
C13G C33U	0.0475

Variant	self-cleavage
C36U A77C	0.145
G38A G40C	0.138
C58G G81C	0.364
G6C G80A	0.0665
U23C A77C	0.256
G39U C86A	0.796
A45U G59A	1
G54C A83G	0.905
C36G C58G	0.0594
C21G G38A	0.0339
C19U C75U	0.0329
C41G U69G	0.755
G40U U72A	0.181
C18A C33A	0.121
C30G A87G	0.0702
A51U C62G	0.131
C33A A42G	0
C26A A42C	0.227
C24G G59A	0.0955
C14U A56U	1.22
U12C U20G	0.0831
C58A G59C	0.904
G40C C75A	0.0326
U47C U69A	0.762

Variant	self-cleavage
C63U G80U	0.224
C19G G59U	0.04
G2A G50U	0.0779
G28U C84A	0.0594
C13A G67A	0.23
G10A A43C	0.176
A71C C86U	0.665
C22U G59A	0.675
G5A U46A	0
C14U C63G	0.831
C7A A71G	0.584
G74U A87C	0.554
C3G G17U	0.073
A78U A83G	0.285
C19G G74U	0.0601
G28C U72C	0
G67A G76U	0.965
C21A G39C	0.113
A42G U65G	0.536
G40C C85U	0.0804
C63A C84A	0.96
C32G C61A	0.121
A42U G55C	0.87
A16U U37C	0.929

Variant	self-cleavage
A16U A45G	0.982
C14A A83U	0.499
C18G C36U	0.0852
C15A C32G	0.107
C4A G59A	0.346
C14U G74C	0.369
G34U A56C	0.219
G52U C86A	0.926
C64U G82C	0.208
U9C G17U	0.914
G40U C64G	0.446
U46A C84U	0.397
C15U G82U	0.231
C14A C86A	0.886
U20A G74A	0
U60A G73A	0.751
G6A C44A	0.201
C14U C33G	0.123
C15A U72C	0.208
G52C G73U	0.415
G10U G25U	0.125
G2U G68A	0.0264
G29A C32A	0.0222
G50C C85A	0.933

Variant	self-cleavage
G38A G73A	0.0875
G54U C75U	0.189
G29A G82U	0.0911
C62U G80U	0.253
G29C A70U	0.0811
U65C A83U	0.369
G5U C19G	0
C36U G82U	0.234
C7G G17A	0
C36G C57A	0.177
C3G G82C	0.0923
G5C C66U	0.106
C4G C22A	0.142
G35U G82C	0.161
U46G G54U	0.443
C4U G40C	0.128
U27G C64G	0.87
A16G	1.07
C14G A43C	0.0504
C63U U72G	0.776
G17U C61A	0.456
C63U U69G	0.875
U12A U65A	0.431
G67U G73U	0.263

Variant	self-cleavage
G1A C13G	0
G17U A70C	0.246
C18G G74U	0.116
C21G G31A	0.18
U27A C30A	0.525
G54C G67A	0.819
C18G G40C	0.0852
C22G G34C	0.0811
C44U U79A	0.688
G2U A77U	0.0244
C48G U60G	1.01
C66A G82A	0.356
C64U G68C	0.305
C36A G38C	0.0415
U9A G50A	1.12
U79C G81U	0.225
G34C G59C	0.0811
G39C U60G	0.185
G28U C30G	0.0886
C66A A83C	0.527
A8C U65A	0.76
G28U A42U	0.138
G11U U72G	0.145
G1A C41A	0.222

Variant	self-cleavage
A51C C63U	1.05
U12C U23G	0.208
C62A A83U	0.494
C21G G40C	0.0898
G10C C22G	0
U60G U79G	0.831
C4G C14G	0
C22U G35C	0
C32G G67U	0.0831
C22U C75A	0.0282
G53U G59U	0.899
C49A A56C	1.05
C3G C85A	0.858
G17U G35U	0.198
U20C A45C	0
C41A C86A	0.815
C7U C44A	0.403
C26G U60C	1.31
C3G C13A	0.0545
A8G G54A	0.877
C14G C21U	0.113
C15U C48G	1.13
A8G U9C	1.11
A51G A83G	0.916

Variant	self-cleavage
C64U C84U	0.785
C22A C44G	0.0489
C18A G68A	0.237
C63A G76A	0.875
G31A C64A	0.359
G54C A70C	0.755
C36A	0.147
G39C U60A	0.481
U46G A87G	0.724
G5U C14G	0.185
U27A C49A	0.831
G10C U23A	1.04
C21A A83G	0.0519
G29C C62G	0.155
C22U C44U	0.249
A45C G67U	0.604
A8C U47A	0.519
G2C A56C	0.0678
G31A C44A	0.192
U27C C57G	0.639
C15U G38U	0.259
G29U A56G	0.227
